# Test system: His6-aptamers (peptide aptamers of FIGS. 4A and 4B, purified)
substance,measurement,value
Cdk2/Cyclin E kinase,phosphorylation of Histone H1 by Cdk2/Cyclin E kinase,All tested aptamers were able to inhibit phosphorylation of Histone H1 by Cdk2/Cyclin E kinase

# — patent US20090130676
